B1: pAD-MYO5B(ABCDE) (other)
chain: GSPDSYSLLLNQLKLAHEELEVRKEEVLILRTQIVSADQRRLAGRNAEPNINARSSWPNSEKHVDQEDAIEAYHGVCQTNSKTEDWGYLNEDGELGLAYQGLKQVARLLEAQLQAQSLEHEEEVEHLKAQLEALKEEMDKQQQTFCQTLLLSPEAQVEFGVQQEISRLTNENLDLKELVEKLEKNERKLKKQLKIYMKKAQDLEA
notes: also called MYO5B ABCDE exons; construct containing just the ABCDE exons
B2: pAD-MYO5B(ABCE) (other)
chain: GSPDSYSLLLNQLKLAHEELEVRKEEVLILRTQIVSADQRRLAGRNAEPNINARSSWPNSEKHVDQEDAIEAYHGVCQTNRLLEAQLQAQSLEHEEEVEHLKAQLEALKEEMDKQQQTFCQTLLLSPEAQVEFGVQQEISRLTNENLDLKELVEKLEKNERKLKKQLKIYMKKAQDLEA

What was measured:
[1] = molecular target: MHV M tail with truncation of 40 carboxyl-terminal amino acids (mouse hepatitis coronavirus strain A59, UniProt P04386 1-147); test: binary yeast 2-hybrid
[2] = molecular target: MHV M cytoplasmic tail (amino acids 105-228), GAL4-BD fusion (mouse hepatitis coronavirus strain A59, UniProt P04386 1-147); test: binary yeast 2-hybrid

Binder | binding result [1] | binding result [2]
B1 | no binding | 
B2 |  | no binding

Reference: patent publication US20240000885A1 (VANDERBILT UNIVERSITY, published 2024)
